The results in this text go back to patent US20070086956A1, “Method for accelerating the rate of mucociliary clearance” (BAYER AKTIENGESELLSCHAFT, priority 1998, published 2007).

Test [1] has as its system human bronchial epithelial cell (HBE). The test can be described thus: Short circuit current (Isc) in cultured human bronchial epithelial (HBE) cells, Ussing chamber. Type of test: cell-based. As to conditions: for sodium current: over a 90 minute period, FIG. 17.
Experimental: Tertiary HBE cell monolayer grown to confluence were mounted in modified Ussing chambers, immersed in Krebs buffer (KBR) solution and bubbled with 95% O2/5% CO2 warmed to 37 C.
Cells were left to equilibrate for 20 minutes before calibrating for background noise and fluid resistance. Transepithelial potential difference was then clamped to 0 mV using a WPI EVC 4000 voltage clamp. Ag/AgCl electrodes were used to monitor Isc. […] Once a response to amiloride was seen, it was washed out with KBR solution. […] 90 minutes following agent treatment, amiloride (10 uM) was added. Once the current was stable forskolin (10 uM) and then bumetanide (100 uM) was added.
Tertiary HBE cell monolayers grown to confluence were mounted in modified Ussing chambers, immersed in Krebs buffer (KBR) solution and bubbled with 95% O2/5% CO2 warmed to 37 C.
Cells were left to equilibrate for 20 minutes before calibrating for background noise and fluid resistance. Transepithelial potential difference was then clamped to 0 mV using a WPI EVC 4000 voltage clamp. Ag/AgCI electrodes were used to monitor Isc. […] Once a response to amiloride was seen, it was washed out with KBR solution. […] 90 minutes following agent treatment, amiloride (10 uM) was added.
Test [2] concerns human CF bronchial epithelial cells. The test can be described thus: Short circuit current (Isc) in cultured human cystic fibrosis bronchial epithelial cells. Type of test: cell-based.
Experimental: HBE cells were isolated from CF patient lung transplant tissue and grown in collagen coated flasks for one week. The cells were then passaged and seeded onto collagen coated Costar Transwell filters (0.33 cm2) and grown in DMEM/F12 media supplemented with 2% Ultroser G. Cells were grown at an air liquid interface and used 2 to 4 weeks after seeding:
Cells on the Transwell filters were mounted in modified Costar Ussing chambers and studied under Isc conditions. […] Isc was recorded for 100 minutes and then the apical bath fluid was exchanged with fresh buffer. Trypsin (100 BAEE units/mL) was added to the apical side and Isc recorded for 10 minutes. Amiloride (10 uM) was then added to the apical side and Isc was recorded for a further 10 minutes.
HBE cells were isolated from CF patient lung transplant tissue and grown in collagen coated flasks for one week. The cells were then passaged and seeded onto collagen coated Costar Transwell filters (0.33 cm^2) and grown in DMEM/F12 media supplemented with 2% Ultroser G. Cells were grown at an air liquid interface and used 2 to 4 weeks after seeding.
Cells on the Transwell filters were mounted in modified Costar Ussing chambers and studied under Isc conditions. […] Isc was recorded for 90 minutes and then amiloride (10 uM) was added and Isc was recorded for a further 10 minutes. The apical bath fluid was then exchanged with fresh buffer, and Isc was recorded for a further 15 minutes. Trypsin (1 uM) was added to the apical side and Isc recorded for 15 minutes. Amiloride (10 uM) was then added to the apical side and Isc was recorded for a further 10 minutes.
The subject of test [3] is guinea pig tracheal epithelial cells. The test can be described thus: Short circuit current (Isc) in cultured guinea pig tracheal epithelial (GPTE) cells. Format: cell-based. As to conditions: 50 ug/mL; over a 30 minute period; FIG. 23. On the procedure:
The aim of this study was to investigate the effect of Bikunin (1-170) (See Example 17) on Isc on GPTE cells in vitro. GPTE cells were seeded onto 1.2 cm diameter, 0.4 um pore size Snapwell™ inserts (Costar UK). Cells were grown to confluence and mounted in modified Ussing chambers 2-4 days after placement on air-liquid interface. Inserts were immersed in Krebs buffer (KBR) solution and bubbled with 95% O2/5% CO2 warmed to 370 C.
After a 20 minute equilibration period, transepithelial potential difference was then clamped to 0 mV using a WPI EVC 4000 voltage clamp. Ag/AgCl electrodes were used to monitor Isc. Once a stable baseline was achieved (typically 20-30 mins), cells were treated with amiloride (30 uM). Once a response to amiloride was obtained, it was washed out with KBR solution. After return to baseline and equilibration, Bikunin (1-170) described in Example 17 (10 to 50 ug/mL) or PBS was added. 30 minutes following agent treatment amiloride (30 uM) was added.

Test [4] deals with guinea pig trachea. The test can be described thus: Tracheal potential difference in the guinea-pig. Format: in vivo. The settings on record: 5 ug topical instillation; three hours of treatment; relative to vehicle; FIG. 15. As for the experimental part: The aim of this study was to investigate the effect of the Kunitz serine protease inhibitor Bikunin, and the sodium channel blocker amiloride on guinea-pig tracheal potential difference 3 hours post treatment. These agents were delivered into the cephalad trachea by topical instillation. TPD was monitored 2 hours later for 60 minutes. The procedure used in this Example is described in Newton et al. in “Cilia, Mucus and Mucociliary Interactions,” Ed., Baum, G. L. et al., Marcel Dekker, New York, 1998; Newton et al., Ped. Pulm. S17, Abs. 364, 1998).
Aqueous formulations of Bikunin (1-170) (5 and 50 ug/mL (SEQ ID NO: 52)) (as described in Example 17 below) and amiloride (obtained from Sigma Chemicals, St. Louis, Mo., USA)(100 uM) were prepared, sterile filtered and endotoxin tested prior to use. […]
Two hours following agent treatment, guinea-pigs were anaesthetised for a second time with Hypnom® and Hypnovel® and immobilised in a supine position. Rectal temperature, measured with a thermistor probe was maintained at 37° C. by manual adjustment of a heat lamp. […] 20 min. following induction of i.m. anaesthesia the tracheal agar electrode was inserted into the cephalad trachea and tracheal potential difference was measured for 60 minutes. […]

Test [5] concerns guinea pig trachea. The test can be described thus: Tracheal potential difference in guinea pigs pretreated with LPS. Format: in vivo. As to conditions: 50 ug/mL topical instillation; guinea pigs pre-exposed to LPS; FIG. 25(b). As for the experimental part: Polymorphonuclear (PMN) leukocyte (neutrophil) dominated airway inflammation is often a feature of CF lung disease. In the guinea pig, exposure to an aerosol of E. coli lipopolysaccharide (LPS) induces a marked PMN influx in the bronchoalveolar Iavage fluid 24 hours post challenge. The aim of this study was to investigate the effect of Bikunin (1-170) described in Example 17 on tracheal potential difference in guinea pigs pre-exposed to an aerosol of LPS. Agents were delivered into the cephalad trachea by topical instillation. TPD was monitored for 60 minutes, 23 hours after exposure to LPS.
Bikunin (1-170) was formulated in Hank's Balanced salt solution (HBSS). Amiloride was obtained from Sigma Chemicals and formulated in HBSS. Vehicle control was HBSS. Hypnorm (Fentanyl citrate 0.315 mg/mL and Fluanisone 10 mg/mL) was obtained from Janssen Animal Health and Hypnovel (Midazolam 5 mg.mL) was obtained from Roche. […]
23.4 hours following LPS treatment, guinea pigs were anaesthetised with Hypnorm and Hypnovel and immobilised in a supine position. […] Rectal temperature was monitored with a thermistor probe.
20 minutes following induction of anaesthesia, Bikunin (50 ug/mL) or amiloride (100 uM) was topically instilled into the cephalad trachea. The tracheal agar electrode was then inserted into the cephalad trachea and tracheal potential difference was measured for 60 minutes. […]

B1: CHO Bikunin (1-170): Glycosylated placental bikunin (1-170), SEQ ID NO: 52, expressed in Chinese hamster ovary cells (Example 17) (protein, listed as Homo sapiens)
chain: ADRERSIHDFCLVSKVVGRCRASMPRWWYNVTDGSCQLFVYGGCDGNSNNYLTKEECLKKCATVTENATGDLATSRNAADSSVPSAPRRQDSEDHSSDMFNYEEYCTANAVTGPCRASFPRWYFDVERNSCNNFIYGGCRGNKNSYRSEEACMLRCFRQQENPPLPLGSK
modifications: glycosylated, CHO-expressed
Take B1: the “Forskolin induced cAMP-mediated chloride secretion and monolayer resistance” value in test [1] (70 nM) is “unaffected”. Also, the sodium current result is recorded as “decreases sodium current” in test [1] (70 nM); “inhibited sodium current” in test [1] (70 nM, listed as Bukinin); “inhibited sodium current” in test [3]. Further, the “inhibition of Na+ Isc” value in test [1] (5 ug.ml−1, normal HBE cells, n=6, further study) was determined as 84%. Moreover, the “sodium short circuit current” value in test [1] (5 ug/mL, FIG. 20) is reported as “decrease sodium short circuit current”. For the same molecule, the Isc entry in test [2] (1 ug/mL) is reported as “inhibited”; in test [2] (10 ug/mL in PBS, over a 90 minute period, FIG. 28(a)) it was “inhibited Isc”; in test [2] (10 ug/mL in PBS, over a 90 minute period, FIG. 28(a), listed as CHO expressed Bikunin (1-170)) it was “decreases sodium current”; in test [2] (1, 5, and 10 ug/mL, at 90 minutes after apical application, FIG. 28(b)) it was “decreases sodium current”; in test [2] (1, 5, and 10 ug/mL, at 90 minutes after apical application, FIG. 28(b), listed as bikunin (1-170)) it was “inhibited Isc”. The tracheal potential difference result with guinea pig trachea [4] is “inhibited the potential difference”; in the test on guinea pig trachea [5], “significantly inhibited potential difference”.
